Source: patent US9993566B2, “SEZ6 modulators and methods of use” (AbbVie Stemcentrx LLC, priority 2013, dated 2018)

Key:
LU100, a SCLC tumor = assay: Fab-saporin cytotoxicity in NTX tumor cells; assay type: cell-based, human; details: 50 and 500 pM antibody with Fab-saporin, seven days
Protocol: To corroborate the results of Example 14 and determine whether SEZ6 modulators can mediate toxin internalization and cell killing of human tumor cells (as opposed to engineered cells), mouse lineage-depleted NTX cells were plated and subsequently exposed to anti-SEZ6 antibodies and Fab-saporin.
(§1) NTX tumors were dissociated into a single cell suspension and plated on Primaria™ plates (BD Biosciences) in growth factor supplemented serum free media as is known in the art. After culturing the cells for one day at 37° C./5% CO2/5% O2, they were treated with a control (IgG1, IgG2a or IgG2b) or a murine SEZ6 modulator and Fab-saporin as described in Example 14. After seven days, the modulator-mediated saporin cytotoxicity was assessed by quantifying the remaining number of live cells using Cell Titer Glo.

rat SEZ6 = assay: Flow cytometry cross reactivity, RIN-m5F cells; assay type: binding; details: 5 μg/mL antibody
Protocol: (§2) In this regard flow cytometry was performed using a FACSCanto II as per the manufacturer's instructions in order to confirm that selected SC17 antibody modulators can immunospecifically associate with human SEZ6 and to determine whether the same modulators cross-react with cynomolgus, rat and/or murine SEZ6 in addition to SEZ6L and SEZ6L2. More particularly modulators were tested for cross reactivity to murine SEZ6 and rat SEZ6 by flow cytometry against Neuro2a (ATCC Cat # CCL131), and RIN-m5F (ATCC cat # CRL-11605) cell lines which express mouse SEZ6 and rat SEZ6, respectively. For examining cross reactivity to cynomolgus SEZ6, yeast displaying the extracellular domain of cynomolgus SEZ6 (Boder et al, 1997) were used for flow cytometry analysis.
(§3) Briefly 1×10^5 cells per well of Neuro2a, RIN-5mF, or yeast displaying cynomolgus SEZ6 cells were incubated for 30 minutes with 50 μL PBS (2% FCS) buffer with 5 μg/mL antibody. Cells were washed twice with the same buffer and then incubated with 50 μL per sample DyLight 649 labeled goat-anti-mouse IgG, Fc fragment specific secondary diluted 1:200 in PBS buffer. After incubating for 15 minutes cells were washed twice with the PBS buffer and re-suspended in the same with DAPI for flow cytometry analysis of Neuro2a and Rin-m5F or buffer without DAPI for flow cytometric analysis of yeast cells with cSEZ6.

SEZ6 ECD = molecular target: T1, SEZ6 ECD (Homo sapiens, UniProt Q53EL9); assay: Fine epitope mapping (phage display peptide library or yeast-displayed SEZ6 ECD mutants); assay type: binding; details: epitope conformational (discontinuous) or linear
T1 construct: SEZ6 extracellular domain (amino acids 1-904); expressed in transfected cells; host or cells: yeast (surface display, Cochran et al. protocol)
Protocol: Epitopes were classified either as conformational (i.e. discontinuous) or linear. Yeast displaying the SEZ6 ECD construct was heat treated for 30 minutes at 80° C. in order to denature the antigen, washed twice in ice-cold PBSA and then subjected to the same staining protocol and flow cytometry analysis as described above. Antibodies that bound to both the denatured and native yeast were classified as binding to a linear epitope, whereas antibodies that bound native yeast but not denatured yeast were classified as conformationally specific.
Fine epitope mapping was further performed on selected antibodies to determine the specific amino acids to which they bound. Antibodies that bound to a linear epitope were mapped using the Ph.D.-12 phage display peptide library kit (New England Biolabs E8110S). The antibody selected for epitope mapping was coated onto a Nunc MaxiSorp tube (Nunc) at 50 μg/mL in 3 mL 0.1 M sodium bicarbonate solution, pH 8 and incubated overnight. The tube was blocked with 3% BSA solution in bicarbonate solution. Then, 10^11 input phage in PBS+0.1% Tween-20 was allowed to bind, followed by ten consecutive washes with 0.1% Tween-20 to wash away non-binding phage. Remaining phage were eluted with 1 mL 0.2 M glycine for 10 minutes at room temperature with gentle agitation, followed by neutralization with 150 μL 1 M Tris-HCl pH 9. Eluted phage were amplified and panned again with 10^11 input phage, using 0.5% Tween-20 during the wash steps to increase selection stringency. DNA from 24 plaques of the eluted phage from the second round was isolated using the Qiaprep M13 Spin kit (Qiagen) and sequenced. Binding of clonal phage was confirmed using an ELISA assay, where the mapped antibody or a control antibody was coated onto an ELISA plate, blocked, and exposed to each clone phage. Phage binding was detected using horseradish peroxidase conjugated anti-M13 antibody (GE Healthcare), and the 1-Step Turbo TMB ELISA solution (Pierce). Phage peptide sequences from specifically binding phage were aligned using Vector NTI (Life Technologies) against the antigen ECD peptide sequence to determine the epitope of binding.
Selected antibodies that bound to a discontinuous epitope were mapped using the technique described by Chao et al. (2007). Libraries of SEZ6 ECD mutants were generated with error prone PCR using nucleotide analogues 8-oxo-2′deoxyguanosine-5′-triphosphate and 2′-deoxy-p-nucleoside-5′triphosphate (both from TriLink Bio) for a target mutagenesis rate of one amino acid mutation per clone. These were transformed into a yeast display format. Using the technique described above for domain-level mapping, the library was stained for c-myc and antibody binding at 50 nM. […] These clones were re-grown, and subjected to another round of FACS sorting for loss of binding to the target antibody. Using the Zymoprep Yeast Plasmid Miniprep kit (Zymo Research), individual ECD clones were isolated and sequenced. Where necessary, mutations were reformatted as single-mutant ECD clones using the Quikchange site directed mutagenesis kit (Agilent).
Individual ECD clones were next screened to determine whether loss of binding was due to a mutation in the epitope, or a mutation that caused misfolding. Mutations that involved cysteine, proline, and stop codons were automatically discarded due to the high likelihood of a misfolding mutation. Remaining ECD clones were then screened for binding to a non-competing, conformationally specific antibody. ECD clones that lost binding to non-competing, conformationally specific antibodies were concluded to contain misfolding mutations, whereas ECD clones that retained equivalent binding as wild type SEZ6 ECD were concluded to be properly folded. Mutations in the ECD clones in the latter group were concluded to be in the epitope. […]

cynomolgus SEZ6 = assay: Flow cytometry cross reactivity, yeast displaying extracellular domain of cynomolgus SEZ6; assay type: binding; details: 5 μg/mL antibody
Protocol: as §2, §3

[1] = tested on: OV26, a NET ovarian tumor; assay: ADC cytotoxicity in NTX tumor cells in vitro; assay type: cell-based, human; details: compared to control msIgG1
Protocol: as §1
(§4) Mouse lineage-depleted NTX tumor cells were exposed to anti-SEZ6 ADCs or a mouse isotype control (msIgG1) using the same method as described in Example 15, except that Fab-saporin was not added.

LU64, a SCLC tumor = assay: ADC cytotoxicity in NTX tumor cells in vitro; assay type: cell-based, human; details: compared to control msIgG1
Protocol: as §1, §4

mouse SEZ6 = molecular target: T2, mouse SEZ6 (Mus musculus, UniProt Q7TSK2); assay: Flow cytometry cross reactivity, Neuro2a cells; assay type: binding; details: 5 μg/mL antibody
T2 construct: Neuro2a (ATCC Cat # CCL131), and RIN-m5F (ATCC cat # CRL-11605) cell lines which express mouse SEZ6 and rat SEZ6; host or cells: Neuro2a
Protocol: as §2, §3

SEZ6L2 = molecular target: T3, SEZ6L2 (Homo sapiens, UniProt Q6UXD5, INS830AYEELLDNRKLEV); assay: ELISA cross reactivity to family member SEZ6L2; assay type: binding; parameters: key to binds SEZ6 family member SEZ6L2 (dagger): *: antibodies that bind SEZ6 family members SEZ6L and SEZ6L2 are designated with an asterisk and/or a dagger, respectively; †: antibodies that bind SEZ6 family members SEZ6L and SEZ6L2 are designated with an asterisk and/or a dagger, respectively
T3 construct: IgK signal peptide (N, cleaved yes); made in house; host or cells: HEK-293T or CHO-S
Protocol: To determine cross reactivity to family member proteins, SEZ6L and SEZ6L2, an ELISA-based assay was used. Plates were coated with SEZ6, SEZ6L, or SEZ6L2 proteins at 0.2 μg/mL in PBS overnight. After washing with PBS containing 0.05% (v/v) Tween 20 (PBST), the wells were blocked with 2% (w/v) BSA in PBS (PBSA), 100 μL/well for 1 hour at room temperature. Antibody was then added at 1 μg/mL in 100 μL PBSA for 1 hour at room temperature. After washing with PBST, 100 μL/well HRP-labeled goat anti-mouse IgG diluted 1:2,000 in PBSA for 1 hour at room temperature. The plates were washed and 100 μL/well of the TMB substrate solution (Thermo Scientific 34028) was added for 15 minutes at room temperature. After developing, an equal volume of 2M H2SO4 was added to stop substrate development and analyzed by spectrophotometer at OD 450. […] As discussed above, such pan-SEZ6 antibodies are compatible with the teachings herein and may be used in conjunction with the disclosed methods.

T3 sequence (Q6UXD5 with tags, fused parts or gaps with the stated changes): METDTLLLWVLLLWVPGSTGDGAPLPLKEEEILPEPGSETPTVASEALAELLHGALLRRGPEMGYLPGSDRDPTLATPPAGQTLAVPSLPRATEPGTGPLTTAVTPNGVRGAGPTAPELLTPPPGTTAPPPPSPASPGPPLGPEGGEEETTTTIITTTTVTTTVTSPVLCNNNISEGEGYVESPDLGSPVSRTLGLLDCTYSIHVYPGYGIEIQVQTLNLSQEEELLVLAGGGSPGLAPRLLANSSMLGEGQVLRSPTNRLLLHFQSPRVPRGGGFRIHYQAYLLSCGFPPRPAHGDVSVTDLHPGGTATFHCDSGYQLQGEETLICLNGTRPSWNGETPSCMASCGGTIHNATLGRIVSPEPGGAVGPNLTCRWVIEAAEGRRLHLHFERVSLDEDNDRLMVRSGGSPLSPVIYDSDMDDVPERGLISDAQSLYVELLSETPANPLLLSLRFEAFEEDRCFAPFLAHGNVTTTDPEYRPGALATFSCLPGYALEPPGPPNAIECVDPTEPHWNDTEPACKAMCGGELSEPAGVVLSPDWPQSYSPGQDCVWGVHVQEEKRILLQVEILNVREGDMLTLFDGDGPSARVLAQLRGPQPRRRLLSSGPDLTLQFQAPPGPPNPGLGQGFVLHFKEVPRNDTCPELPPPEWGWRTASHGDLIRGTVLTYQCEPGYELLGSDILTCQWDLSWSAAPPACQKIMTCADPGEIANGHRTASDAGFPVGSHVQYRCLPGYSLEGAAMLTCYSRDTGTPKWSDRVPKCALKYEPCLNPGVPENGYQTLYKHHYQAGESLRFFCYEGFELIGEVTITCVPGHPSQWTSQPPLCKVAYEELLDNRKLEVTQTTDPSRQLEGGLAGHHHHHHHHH
Sequence of rat SEZ6 (as listed by the source): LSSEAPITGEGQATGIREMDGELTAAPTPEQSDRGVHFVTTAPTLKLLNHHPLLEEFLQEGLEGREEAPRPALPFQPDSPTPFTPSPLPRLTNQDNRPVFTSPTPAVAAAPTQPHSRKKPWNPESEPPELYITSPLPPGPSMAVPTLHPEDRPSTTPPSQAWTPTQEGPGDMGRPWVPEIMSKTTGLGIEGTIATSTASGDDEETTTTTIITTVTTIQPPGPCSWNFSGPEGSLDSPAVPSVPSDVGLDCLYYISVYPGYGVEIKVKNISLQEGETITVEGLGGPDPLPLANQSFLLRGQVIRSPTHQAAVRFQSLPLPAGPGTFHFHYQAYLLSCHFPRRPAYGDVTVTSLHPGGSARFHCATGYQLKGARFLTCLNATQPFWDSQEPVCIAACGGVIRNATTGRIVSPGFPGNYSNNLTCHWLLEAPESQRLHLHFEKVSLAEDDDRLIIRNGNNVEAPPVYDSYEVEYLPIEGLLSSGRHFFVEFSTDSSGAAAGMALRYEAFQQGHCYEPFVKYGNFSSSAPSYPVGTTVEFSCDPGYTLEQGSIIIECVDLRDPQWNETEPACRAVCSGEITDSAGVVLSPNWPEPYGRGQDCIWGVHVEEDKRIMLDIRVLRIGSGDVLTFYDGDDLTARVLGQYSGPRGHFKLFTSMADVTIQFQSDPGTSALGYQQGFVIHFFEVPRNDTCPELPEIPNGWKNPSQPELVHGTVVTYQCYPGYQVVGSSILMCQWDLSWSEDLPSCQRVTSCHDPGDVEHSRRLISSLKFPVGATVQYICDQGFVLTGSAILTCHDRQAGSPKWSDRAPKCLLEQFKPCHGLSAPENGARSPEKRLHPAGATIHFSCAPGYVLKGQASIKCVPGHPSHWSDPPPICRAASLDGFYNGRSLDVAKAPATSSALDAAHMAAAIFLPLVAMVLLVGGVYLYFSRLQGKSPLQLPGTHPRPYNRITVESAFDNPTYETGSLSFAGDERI
T2 sequence (Q7TSK2 20-991): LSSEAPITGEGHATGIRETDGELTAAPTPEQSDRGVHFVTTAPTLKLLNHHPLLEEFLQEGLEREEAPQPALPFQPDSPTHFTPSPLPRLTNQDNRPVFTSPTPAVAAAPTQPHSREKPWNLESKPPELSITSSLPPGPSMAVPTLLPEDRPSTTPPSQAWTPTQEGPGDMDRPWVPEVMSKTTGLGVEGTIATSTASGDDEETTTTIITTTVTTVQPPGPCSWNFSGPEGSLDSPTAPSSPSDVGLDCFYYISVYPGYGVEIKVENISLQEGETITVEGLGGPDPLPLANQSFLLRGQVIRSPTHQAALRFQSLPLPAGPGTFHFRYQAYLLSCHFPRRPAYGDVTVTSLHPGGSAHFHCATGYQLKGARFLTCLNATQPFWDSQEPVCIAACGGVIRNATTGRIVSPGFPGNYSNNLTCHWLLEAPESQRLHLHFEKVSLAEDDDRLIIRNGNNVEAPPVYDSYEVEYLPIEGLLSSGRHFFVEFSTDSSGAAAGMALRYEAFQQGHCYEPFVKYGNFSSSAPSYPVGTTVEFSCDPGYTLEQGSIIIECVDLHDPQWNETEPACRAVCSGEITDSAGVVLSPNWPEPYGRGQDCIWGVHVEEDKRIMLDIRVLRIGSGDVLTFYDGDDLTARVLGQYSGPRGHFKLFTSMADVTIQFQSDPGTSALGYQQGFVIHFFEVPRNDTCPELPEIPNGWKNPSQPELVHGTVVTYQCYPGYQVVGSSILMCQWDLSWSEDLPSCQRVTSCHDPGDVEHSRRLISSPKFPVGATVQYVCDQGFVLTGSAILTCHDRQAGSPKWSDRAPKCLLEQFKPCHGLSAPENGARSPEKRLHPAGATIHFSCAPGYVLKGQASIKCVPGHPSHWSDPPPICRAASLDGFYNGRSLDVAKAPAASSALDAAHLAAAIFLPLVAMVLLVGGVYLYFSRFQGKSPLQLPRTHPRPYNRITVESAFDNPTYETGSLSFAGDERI
T1 sequence (Q53EL9 20-923): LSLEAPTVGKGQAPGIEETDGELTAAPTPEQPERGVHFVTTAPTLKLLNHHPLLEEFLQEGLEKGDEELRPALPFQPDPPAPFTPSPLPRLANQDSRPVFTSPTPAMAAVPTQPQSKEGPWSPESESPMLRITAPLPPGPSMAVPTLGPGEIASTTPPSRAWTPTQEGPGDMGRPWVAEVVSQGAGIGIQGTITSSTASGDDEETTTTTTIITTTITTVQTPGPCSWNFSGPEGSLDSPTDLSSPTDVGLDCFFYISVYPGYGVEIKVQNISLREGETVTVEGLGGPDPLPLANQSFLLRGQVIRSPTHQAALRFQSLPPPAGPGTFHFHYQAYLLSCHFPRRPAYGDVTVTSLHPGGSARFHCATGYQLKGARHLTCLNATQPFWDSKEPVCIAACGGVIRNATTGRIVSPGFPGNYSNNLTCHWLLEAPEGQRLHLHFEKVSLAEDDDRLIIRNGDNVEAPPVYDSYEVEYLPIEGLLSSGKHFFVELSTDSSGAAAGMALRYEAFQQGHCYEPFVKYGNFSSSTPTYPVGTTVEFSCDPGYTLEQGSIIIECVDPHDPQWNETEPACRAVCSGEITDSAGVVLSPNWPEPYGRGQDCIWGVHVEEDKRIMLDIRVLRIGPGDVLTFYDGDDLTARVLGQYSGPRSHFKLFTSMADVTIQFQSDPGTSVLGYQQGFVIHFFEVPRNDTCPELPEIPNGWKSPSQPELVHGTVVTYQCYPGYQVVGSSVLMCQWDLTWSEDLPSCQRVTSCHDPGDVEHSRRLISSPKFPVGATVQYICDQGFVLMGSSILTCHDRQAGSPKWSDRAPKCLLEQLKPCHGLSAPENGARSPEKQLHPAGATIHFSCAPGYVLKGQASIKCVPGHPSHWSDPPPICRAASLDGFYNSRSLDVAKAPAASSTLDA

| Molecule | number of tumor cells, LU100 (LU100, a SCLC tumor) | cross reactivity to rat SEZ6 (rat SEZ6) | percent viable cells, OV26 [1] | percent viable cells, LU64 (LU64, a SCLC tumor) | also measured |
| --- | --- | --- | --- | --- | --- |
| SC17.34: murine anti-SEZ6 antibody (antibody, V domains shown, Murine SC17.34 VH; Murine SC17.34 VL, murine anti-SEZ6 antibody) VH: EVQLQQSGPELVKPGSSVKISCKASGYTFTDYNMDWVKQSHGKRLEWIGYIYPDNGGAGYNQKFKGKATLTVDKSSSTAYMELRSLTSEDSAVYYCSRSITTAWFAYWGQGTLVTVSA VL: DIKMTQSPSSMYASLGERVTITCKASQDINSYLSWFQQKPGKSPKTLIYRANRLVDGVPSRFSGSGSGQDYSLTISSLEYEDMGIYYCLQYDEFPPTFGGGTKLEIK | reduction of tumor cells | cross reactive | – | – | Discontinuous (SEZ6 ECD): Yes; cross reactivity to cynomolgus SEZ6 (cynomolgus SEZ6): cross reactive |
| SC17.34-ADC2: SC17.34 antibody conjugated to PBD dimer cytotoxic agent (and linker) ADC2 (conjugate) VL: DIKMTQSPSSMYASLGERVTITCKASQDINSYLSWFQQKPGKSPKTLIYRANRLVDGVPSRFSGSGSGQDYSLTISSLEYEDMGIYYCLQYDEFPPTFGGGTKLEIK VH: EVQLQQSGPELVKPGSSVKISCKASGYTFTDYNMDWVKQSHGKRLEWIGYIYPDNGGAGYNQKFKGKATLTVDKSSSTAYMELRSLTSEDSAVYYCSRSITTAWFAYWGQGTLVTVSA | – | – | increased reduction in percent viable cells | increased reduction in percent viable cells | – |
| SC17.19: murine anti-SEZ6 antibody (antibody, V domains shown, Murine SC17.19 VH; Murine SC17.19 VL, murine anti-SEZ6 antibody) VH: DVQLQESGPGLVKPSQSLSVTCTVTGYSITSSYTWNWIRQFPGNKLEWMGYIHYSGSTNYNPSLRSRISITRDTSKNQFFLQLNSVTTEDTATYYCARSRYYYDAYGFAYWGQGTLVTVSA VL: DIVLTQSPASLAVSLGQRAAISCKPSQSVDYDGDSYMNWYQQKPGQPPKLLIYAASNLESGIPARFSGSGSGTDFTLNIHPVEEEDAATYYCHQINDDPWTFGGGTKLK | reduction of tumor cells | cross reactive | – | – | cross reactivity to murine SEZ6 (mouse SEZ6): cross reactive; cross reactivity with SEZ6L2 (SEZ6L2; ELISA, antibody 1 μg/mL): cross-reactive; binds SEZ6 family member SEZ6L2 (dagger) (SEZ6L2; mark in Table 5): SC17.SC17, SC17.19^†, SC17.93, SC17.102, SC17.121, |
| SC17.28-ADC2: SC17.28 antibody conjugated to PBD dimer cytotoxic agent (and linker) ADC2 (conjugate) VL: DILLTQSPAILSVSPGEGVSFSCRASQSIGTSIHWYQQRTNGSPRLLIKYASESISGIPSRFSGSGSGTDFTLRINSLESEDIADYYCQQSNSWPLTFGAGTKLELK VH: QVHLPQSRPELVKPGASVKISCKASGYGFTRSYIHWVKQRPGQGLEWIGYISSGSGGTTYNQKFKGKASLTADNPSSTAYMHLSSLTSEDSAIYFCARGGVRYFDVWGAGTTVTVSS | – | – | increased reduction in percent viable cells | increased reduction in percent viable cells | – |
| SC17.24-ADC2: SC17.24 antibody conjugated to PBD dimer cytotoxic agent (and linker) ADC2 (conjugate) VL: DIVMSQSPSSLAVSVGEKVTMSCKSSQSLLYSSNQKSYLAWYQQKPGQSPKLLIYWASTRESGVPDRFTGSGSGTDFTLTISSVQAEDLAVYYCKQSYNLRTFGGGTKLEIK VH: QVQLQQSDAELVKPGASVKISCKVSGYTFTDHTIHWMKQRPEQGLEWIGYIYPRDGSTKYNEEFKGKATLTADKSSSTAYMQLNSLTSEDSAVYFCARSYSNYFDYWGQGTTLTVSS | – | – | increased reduction in percent viable cells | increased reduction in percent viable cells | – |
